Source: paper PMC7314397 (Protein Science : A Publication of the Protein Society, 2020)

T1: Homo sapiens NCBD (nuclear coactivator binding domain) from CREBBP (Homo sapiens (human), UniProt Q92793 2061-2109)
T1 chain: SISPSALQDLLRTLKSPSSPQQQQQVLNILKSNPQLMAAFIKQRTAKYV


What was measured:
Assay in all cases: ITC
[1] = biological target: Strongylocentrotus purpuratus NCBD (nuclear coactivator binding domain of CREBBP/p300) (Strongylocentrotus purpuratus (purple sea urchin))
[2] = biological target: Petromyzon marinus NCBD (nuclear coactivator binding domain of CREBBP/p300) (Petromyzon marinus (sea lamprey))
[3] = biological target: Homo sapiens NCBD (nuclear coactivator binding domain) from CREBBP (Homo sapiens (human)) (UniProt Q92793)
[4] = biological target: T1, Homo sapiens NCBD (nuclear coactivator …)

| Kd [1] | Kd [2] | Molecule | further results |
| --- | --- | --- | --- |
| 13 µM |  | Homo sapiens CID (CREBBP-binding domain) from NCOA3 (ACTR) (from UniProt Q9Y6Q9 1045-1086) (domain or fragment) |  |
|  | 0.2 µM | Petromyzon marinus CID, from the first of the two NCOA proteins (domain or fragment) |  |
|  | 0.2 µM | Petromyzon marinus CID, from the second of the two NCOA proteins (domain or fragment) |  |
| 7 to 22 µM |  | Strongylocentrotus purpuratus CID (CREBBP-binding domain of NCOA) (domain or fragment) | stoichiometry N [1]: 1.7; Kd [3]: 4.8 µM |
|  |  | EGQSDERALLDQLHTLLSNTDATGLEEIDRALGIPELVNQGQ (domain or fragment, Homo sapiens (human)) [Homo sapiens CID (CREBBP-binding domain) from NCOA3 (ACTR)] | Kd [4]: 0.4 µM |
